From paper PMC12278347, “Exploiting SpyTag/SpyCatcher Technology to Design New Artificial Catalytic Copper Proteins” (Chembiochem, 2025) come the findings set out here.

No end group written: not given here.

The experiment addresses T1, SpyCatcher002‐mut (H26Q H62Q), cleaved with TEV protease.
T1 construct: Second-generation SpyCatcher (SC002) redesigned with H26Q and H62Q; also called SC1m; SCm; source: recombinant, purified; not shown: HisTag, N-terminal, cleaved
The experiment in a line: LC-MS of the covalent adduct; 25 μM each in 20 mM HEPES, pH 7.4, room temperature, injected after 5 min; isopeptide-bonded ST/SC adduct detected by MS; repeated with Cu2+ without effect on adduct formation. The conditions noted are these: both partners purified.

T1 sequence (chain, as listed by the source): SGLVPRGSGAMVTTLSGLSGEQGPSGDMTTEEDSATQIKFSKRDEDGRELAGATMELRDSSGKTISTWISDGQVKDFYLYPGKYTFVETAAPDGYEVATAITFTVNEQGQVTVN

B1: ATCUN(GSH)‐SpyTag002 (peptide)
peptide: GSHVPTIVMVDAYKRYK
notes: SpyTag002 peptide with an N-terminal GSH ATCUN copper site; also called ST‐A1; ST; source: synthetic peptide (solid‐phase peptide synthesis, RP‐HPLC)
In the case of B1, the binding result is on record as “binds”.

B2: ATCUN(DAH)‐SpyTag002 (peptide)
peptide: DAHVPTIVMVDAYKRY-NH2
notes: SpyTag002 peptide with an N-terminal DAH ATCUN copper site; lacks the last lysine and ends with an amidated tyrosine; also called ST‐A2; ST; source: synthetic peptide (solid‐phase peptide synthesis, RP‐HPLC)
As for B2, the binding result was “binds”.
